We go through 1 molecule from patent publication US20250277030A1, “ANTI-NAPI2B ANTIBODIES AND METHODS OF USE” (Zymeworks BC Inc., priority 2022, published 2025).

Assay [1] has as its system HCC-78 cells. Briefly: Internalization by flow cytometry in HCC-78 cells. As to conditions: antibody 10 nM. The assay is classed as cell-based, human. Here is the method:
Briefly, antibodies were fluorescently labeled by coupling to a Fab fragment AF488 conjugate targeting anti-Human IgG Fe (Jackson Immuno Research Labs, West Grove, PA; Cat. No. 109-547-008) at a 1:1 molar ratio in PBS pH 7.4 (Thermo Fisher Scientific, Waltham, MA; Cat. No. 10010-023), for 24 hours at 4° C. Cells were seeded at 50,000 cells/well in RPMI 1640, ATCC modification (Thermo Fisher Scientific, Waltham, MA) supplemented with 10% fetal bovine serum (Thermo Fisher Scientific, Waltham, MA) in 48-well plates and incubated overnight under standard culturing conditions (37° C./5% CO2) to allow attachment. […] Following incubation, cells were dissociated, washed, and surface AF488 fluorescence was quenched using an anti-AF488 antibody (Life Technologies, Carlsbad, CA; Cat. No. A-11094) at 100 nM for 30 minutes at 4° C. […] (internalized fluorescence) was detected by flow cytometry on a BD LSRFortessa™ Cell Analyzer (BD Biosciences, Franklin Lake, NJ) with 1,000 minimum events collected per well. The AF488/FITC-A GeoMean (fluorescence signal geometric mean, proportional to anti-Human Fab AF488 labelling) was calculated for the live single cell population using FlowJo™ Version 10.8.1 (BD Biosciences, Franklin Lake, NJ) and plotted using GraphPad Prism Version 9 (GraphPad Software, San Diego, CA).

Assay [2] has as its target T1, human NaPi2b (Homo sapiens, UniProt O95436).
T1 construct: host or cells: HEK293-6e
T1 sequence (O95436 1-690): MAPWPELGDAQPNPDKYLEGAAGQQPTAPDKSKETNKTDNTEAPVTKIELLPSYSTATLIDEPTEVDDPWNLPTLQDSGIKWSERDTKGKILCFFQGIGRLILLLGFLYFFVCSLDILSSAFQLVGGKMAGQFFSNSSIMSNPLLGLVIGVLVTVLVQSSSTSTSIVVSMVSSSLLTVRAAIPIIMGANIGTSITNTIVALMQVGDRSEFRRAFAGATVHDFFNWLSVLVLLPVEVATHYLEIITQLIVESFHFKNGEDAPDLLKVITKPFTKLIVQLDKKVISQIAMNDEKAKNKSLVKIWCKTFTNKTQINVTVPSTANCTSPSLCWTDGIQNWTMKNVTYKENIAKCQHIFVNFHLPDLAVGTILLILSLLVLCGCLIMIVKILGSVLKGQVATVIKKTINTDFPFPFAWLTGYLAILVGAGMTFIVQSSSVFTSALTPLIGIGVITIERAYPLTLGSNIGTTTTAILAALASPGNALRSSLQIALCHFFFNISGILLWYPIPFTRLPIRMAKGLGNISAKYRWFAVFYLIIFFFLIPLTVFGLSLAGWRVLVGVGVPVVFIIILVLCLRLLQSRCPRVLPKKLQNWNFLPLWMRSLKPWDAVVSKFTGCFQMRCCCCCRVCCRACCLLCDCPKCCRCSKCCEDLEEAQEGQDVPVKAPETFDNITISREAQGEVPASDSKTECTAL
Briefly: Flow cytometry binding to HEK293-6e cells transfected with human NaPi2b (Example 5). The following applies: transfected HEK293-6e cells, 18-24 hours at 4° C. The protocol: The binding cross-reactivity of humanized antibody variant v29456 to human, cynomolgus and mouse NaPi2b was assessed by flow cytometry using HEK293-6e transfected cells.
Briefly, HEK293-6e cells were transfected for ˜24 hours to transiently express human NaPi2b, cynomolgus or mouse NaPi2b, at 1 μg of DNA per 1 million cells. Following transfection, 50,000 cells per well were seeded in V-bottom 96-well plates and incubated with 200 nM of primary antibody for 18-24 hours at 4° C. to prevent internalization. Post-incubation, cells were washed and stained with anti-Human IgG Fc AF647 conjugate (Jackson Immuno Research Labs, West Grove, PA, Cat. No. 109-605-098, Lot. No. 124868) at 4° C. for 1 hour. Following staining and washing, fluorescence was detected by flow cytometry on BD LSRFortessa™ Cell Analyzer (BD Biosciences, Franklin Lake, NJ) with 10,000 minimum events collected per well. The AF647/APC-A GeoMean (fluorescence signal geometric mean, proportional to anti-Human AF647 binding) was calculated for the live singlet cell population for each primary antibody using FlowJo™ v8 software (BD Biosciences, Franklin Lake, NJ). The Bmax and Kd of each primary antibody were calculated using GraphPad Prism Version 9 (GraphPad Software, San Diego, CA)
For orientation: A flow cytometer gives signals particle by particle.

B1: v29456: humanized anti-NaPi2b IgG1/kappa antibody H1L2; VH SEQ ID NO:24, VL SEQ ID NO:29 (antibody, V domains shown)
VH: QVQLVQSGAEVKKPGASVKVSCKASGFTFTSYNVHWVRQAPGQGLEWMGAISPGNGDLSYAQKFQGRVTMTRDTSTSTVYMELSSLRSEDTAVYYCARGRTGMGAVDYWGQGTLVTVSS
VL: DVQMTQSPSSLSASVGDRVTITCRASQDVYSYLNWYQQKPGKAVKLLIYYTSRLQSGVPSRFSGSGSGTDYTLTISSLQPEDFATYYCQQYNIFPWTFGQGTKLEIK
modifications: v29452, v29456, v29460 VH (H1); v29453, v29454, v29455, v29456 VL (L2)
As to B1, the “Internalized Fluorescence Fold-Over Palivizumab” value was 25.3 fold in assay [1] (HCC-78, 5 hrs) and 59.9 fold in assay [1] (HCC-78, 24 hrs). Moreover, the “Bmax (APC-A GeoMean), Hu NaPi2b” value in assay [2] is listed as 2,538 APC-A GeoMean. In addition, the Kd in assay [2] (highest antibody concentration 200 nM, read-out: Apparent Kd (nM), Hu NaPi2b) came to 5.2 nM.
